Read-outs that look alike come from different tables or passages of the source.
Columns and labels:
[1] = Biodistribution in normal tissues; format: in vivo, C57BL/6 female mice; details: for tissue uptake at 2 h / tissue uptake at 4 h / tissue uptake at 6 h / tissue uptake at 24 h / tissue uptake at 72 h / tissue uptake at 144 h / tissue uptake at 216 h / tissue uptake at 1 h: female, C57BL/6, mouse, iv, 0.37 MBq, total radioactivity
Experimental: To determine the biodistribution of [^67Cu]Cu-SAR-BBN in normal tissues, 40 female C57BL/6 mice were evaluated in groups of 5 mice at various time points. [^67Cu]Cu-SAR-BBN was prepared in 0.9% saline with a concentration of 0.37 MBq (10 µCi) per 100 µL. Mice (n = 5) were injected with 0.37 MBq radiotracers via tail vein and sacrificed by cervical dislocation at 1 h, 2 h, 4 h, 6 h, 24 h, 3 days, 6 days, and 9 days. Blood, lung, liver, spleen, kidney, muscle, heart, bone, and pancreas were harvested and counted for activity on a gamma counter. The percent injected dose per gram for each tissue of interest (% ID/g) was calculated and expressed as Mean ± SD. All radioactivity measurements were corrected for decay.

PC-3 tumors [2] = experiment: Therapy study in PC-3 tumor-bearing mice; format: in vivo, athymic nude mice
Experimental: (§1) To assess the therapeutic potential of [^67Cu]Cu-SAR-BBN, athymic nude mice bearing subcutaneous PC-3 tumors with a tumor size of ~150 mm^3 were randomly assigned into 2 groups (n = 12 mice per group). For treatment, mice were dosed intravenously with three injections of 24 MBq [^67Cu]Cu-SAR-BBN on days 0, 2, and 4, followed by a drug-free week before the injections of 24 MBq on days 14, 16, and 18. The total activity injected corresponded to 144 MBq. The control group was injected via tail vein with six injections of 0.9% saline at the same time points. Body weight and tumor volume (through caliper measurements) were monitored and recorded three times a week. Tumor size was calculated by the following formula: L × W^2/2, where L is the long diameter of the tumor and W is the short diameter of the tumor. […] Any remaining mice at day 54 were euthanized, and tumor volume and survival curves were generated and analyzed to evaluate the efficacy of [^67Cu]Cu-SAR-BBN. Percentage tumor growth inhibition was calculated as 100 × (1 − ΔT/ΔC), where ΔC and ΔT were determined by subtracting the mean tumor volume (in the vehicle control and treated group, respectively) on day 0 of treatment from the mean tumor volume on day 19 (the last day all mice remained in the study). […]

[3] = format: in vitro ADME, human
Experimental: (§2) Briefly, 100 µL of the radiolabeled complex was added to 100 µL PBS 1X or human serum (HSA […]) in triplicate. [^67Cu]Cu-SAR-BBN was incubated at 37 °C for 14, 24, 48, 72, and 96 h with moderate agitation. An aliquot (0.5 μL) was withdrawn at each specified time point. Radio-TLCs with a mobile phase of 50 mM DTPA were performed to evaluate the percentage of intact radiolabeled peptides.

[4] = system: GRPR-positive PC-3 cell line; experiment: Cell binding and internalization; format: cell-based; details: PC-3 cells
Experimental: The PC-3 cell line was purchased from ATCC (Manassas, VA, USA), revived from liquid nitrogen storage, and cultured at 37 °C, 5% CO2. PC-3 cells were cultured in media containing DMEM, 10% heat-inactivated fetal bovine serum (FBS) (Gibco, Thermo Fisher Scientific, Inc., Waltham, MA, USA), and 10 mM HEPES.
A PC-3 cell suspension was prepared in 1X PBS at a concentration of 10^6 cells/100 μL. Eppendorf tubes (in triplicates) were pretreated with 5% bovine serum albumin (BSA) in PBS to block non-specific binding. Tyr^4-BBN, as a blocking agent, was diluted in 5% BSA in PBS. Then, 100 μL of cells and either 20 μg block or PBS 1X were added to each tube. Approximately 100,000 cpm of [^67Cu]Cu-SAR-BBN was added to the tubes. Cells were incubated at 37 °C at moderate speed to prevent cell settling. After each specified time point (30, 60, 120, 240, and 360 min), cells were centrifuged and the supernatant was aspirated from cell pellets, which was followed by two additional rinses with ice-cold PBS. Cells pellets were then collected and counted for activity on a gamma counter. To determine the fraction of internalized radiotracer, cells were treated with 2 × 0.5 mL of 20 mM sodium acetate (pH 4.0) for 2 min to remove surface-bound radioactivity and counted again for activity.

PC-3 tumors [5] = experiment: Tumor histology and Ki-67 immunostaining; format: in vivo, athymic nude mice
Experimental: The kidneys, pancreas, livers, and tumors of 4 control mice and 4 treated mice were harvested and fixed in neutral buffered formalin. After fixation and dehydration, tissue samples were embedded in paraffin, and tissue sections were then stained with either hematoxylin and eosin (H&E) or Ki-67 for microscopic examination. H&E staining of tissue samples was prepared by the Anatomic and Molecular Pathology Core Lab, Washington University in St Louis. Ki-67 immunostaining was performed on 5 µm tissue sections of PC-3 tumors. The slides were baked in 55 °C oven for 60 min. The sections were deparaffinized, and heat-induced antigen retrieval was performed in citrate buffer 0.1 M pH 6.0 at 92 °C. After 20 min, the slides were cooled in 4 °C fridge for 15 min. The sections were then blocked with Dako Endogenous Enzyme Block (Dako North America, Inc., Carpinteria, CA, USA) for 10 min and washed twice with Dako Wash Buffer 1X. The sections were blocked with 10% goat serum in PBS for another 45 min and washed 2 × 5 min with Dako Wash Buffer 1X. The slides were then rinsed and incubated with Ki-67 antibody (1:100 dilution) overnight at 4 °C. […] Staining results were assessed by Olympus fluorescent microscope (BX51) and the cell Sense software in a blinded manner.

Stability in PBS 1X = format: physicochemical; details: 1:1 with radiolabeled complex, 37 °C, 96 h, moderate agitation, radio-TLC, 50 mM DTPA, triplicate
Experimental: as §2

[6] = Treatment-related toxicity (body weight, H&E histology of kidney, pancreas, liver); format: in vivo, athymic nude mice
Experimental: as §1

SMILES: CC(C)C[C@H](NC(=O)C[C@H](O)[C@H](CC(C)C)NC(=O)[C@H](Cc1c[nH]cn1)NC(=O)CNC(=O)[C@@H](NC(=O)[C@H](C)NC(=O)[C@H](Cc1c[nH]c2ccccc12)NC(=O)[C@H](CCC(N)=O)NC(=O)[C@@H](Cc1ccccc1)NC(=O)CCOCCOCCOCCOCCNC(=O)CCCC(=O)NC12CNCCNCC(C)(CNCCNC1)CNCCNC2)C(C)C)C(N)=O [[^67Cu]Cu-SAR-BBN, metal not drawn]
- Kidney %ID/g ([1]; 1 h after i.v. injection of 0.37 MBq, mean, n = 5): 6.15 %ID/g
- tissue uptake at 2 h ([1]; in vivo, Blood %ID/g): 0.62 %ID/g
- tissue uptake at 4 h ([1]; in vivo, Blood %ID/g): 0.53 %ID/g
- tissue uptake at 6 h ([1]; in vivo, Blood %ID/g): 0.54 %ID/g
- tissue uptake at 24 h ([1]; in vivo, Blood %ID/g): 0.33 %ID/g
- tissue uptake at 72 h ([1]; in vivo, Blood %ID/g): 0.39 %ID/g
- tissue uptake at 144 h ([1]; in vivo, Blood %ID/g): 0.11 %ID/g
- tissue uptake at 216 h ([1]; in vivo, Blood %ID/g): 0.06 %ID/g
- tissue uptake at 1 h ([1]; in vivo, Bone %ID/g): 0.88 %ID/g
- tissue uptake at 2 h ([1]; in vivo, Bone %ID/g): 0.4 %ID/g
- tissue uptake at 4 h ([1]; in vivo, Bone %ID/g): 0.47 %ID/g
- tissue uptake at 6 h ([1]; in vivo, Bone %ID/g): 0.46 %ID/g
- tissue uptake at 24 h ([1]; in vivo, Bone %ID/g): 0.31 %ID/g
- tissue uptake at 72 h ([1]; in vivo, Bone %ID/g): 0.25 %ID/g
- tissue uptake at 144 h ([1]; in vivo, Bone %ID/g): 0.09 %ID/g
- tissue uptake at 216 h ([1]; in vivo, Bone %ID/g): 0.09 %ID/g
- tissue uptake at 1 h ([1]; in vivo, Heart %ID/g): 1 %ID/g
- tissue uptake at 2 h ([1]; in vivo, Heart %ID/g): 0.58 %ID/g
- tissue uptake at 4 h ([1]; in vivo, Heart %ID/g): 0.78 %ID/g
- tissue uptake at 6 h ([1]; in vivo, Heart %ID/g): 0.84 %ID/g
- tissue uptake at 24 h ([1]; in vivo, Heart %ID/g): 0.84 %ID/g
- tissue uptake at 72 h ([1]; in vivo, Heart %ID/g): 1.35 %ID/g
- tissue uptake at 144 h ([1]; in vivo, Heart %ID/g): 0.93 %ID/g
- tissue uptake at 216 h ([1]; in vivo, Heart %ID/g): 0.58 %ID/g
- tissue uptake at 2 h ([1]; in vivo, Liver %ID/g): 5.08 %ID/g
- tissue uptake at 4 h ([1]; in vivo, Liver %ID/g): 5.9 %ID/g
- tissue uptake at 6 h ([1]; in vivo, Liver %ID/g): 6.78 %ID/g
- tissue uptake at 24 h ([1]; in vivo, Liver %ID/g): 3.8 %ID/g
- tissue uptake at 72 h ([1]; in vivo, Liver %ID/g): 4.03 %ID/g
- tissue uptake at 144 h ([1]; in vivo, Liver %ID/g): 1.31 %ID/g
- tissue uptake at 216 h ([1]; in vivo, Liver %ID/g): 0.59 %ID/g
- tissue uptake at 2 h ([1]; in vivo, Lung %ID/g): 1.95 %ID/g
- tissue uptake at 4 h ([1]; in vivo, Lung %ID/g): 2.68 %ID/g
- tissue uptake at 6 h ([1]; in vivo, Lung %ID/g): 3.25 %ID/g
- tissue uptake at 24 h ([1]; in vivo, Lung %ID/g): 1.81 %ID/g
- tissue uptake at 72 h ([1]; in vivo, Lung %ID/g): 1.89 %ID/g
- tissue uptake at 144 h ([1]; in vivo, Lung %ID/g): 0.68 %ID/g
- tissue uptake at 216 h ([1]; in vivo, Lung %ID/g): 0.32 %ID/g
- tissue uptake at 1 h ([1]; in vivo, Muscle %ID/g): 0.52 %ID/g
- tissue uptake at 2 h ([1]; in vivo, Muscle %ID/g): 0.25 %ID/g
- tissue uptake at 4 h ([1]; in vivo, Muscle %ID/g): 0.35 %ID/g
- tissue uptake at 6 h ([1]; in vivo, Muscle %ID/g): 0.59 %ID/g
- tissue uptake at 24 h ([1]; in vivo, Muscle %ID/g): 0.2 %ID/g
- tissue uptake at 72 h ([1]; in vivo, Muscle %ID/g): 0.27 %ID/g
- tissue uptake at 144 h ([1]; in vivo, Muscle %ID/g): 0.21 %ID/g
- tissue uptake at 216 h ([1]; in vivo, Muscle %ID/g): 0.15 %ID/g
- tissue uptake at 2 h ([1]; in vivo, Pancreas %ID/g): 14.7 %ID/g
- tissue uptake at 4 h ([1]; in vivo, Pancreas %ID/g): 5.48 %ID/g
- tissue uptake at 6 h ([1]; in vivo, Pancreas %ID/g): 3.38 %ID/g
- tissue uptake at 24 h ([1]; in vivo, Pancreas %ID/g): 0.55 %ID/g
- tissue uptake at 72 h ([1]; in vivo, Pancreas %ID/g): 0.75 %ID/g
- tissue uptake at 144 h ([1]; in vivo, Pancreas %ID/g): 0.39 %ID/g
- tissue uptake at 216 h ([1]; in vivo, Pancreas %ID/g): 0.22 %ID/g
- tissue uptake at 1 h ([1]; in vivo, Spleen %ID/g): 1.94 %ID/g
- tissue uptake at 2 h ([1]; in vivo, Spleen %ID/g): 1.27 %ID/g
- tissue uptake at 4 h ([1]; in vivo, Spleen %ID/g): 0.94 %ID/g
- tissue uptake at 6 h ([1]; in vivo, Spleen %ID/g): 0.9 %ID/g
- tissue uptake at 24 h ([1]; in vivo, Spleen %ID/g): 0.51 %ID/g
- tissue uptake at 72 h ([1]; in vivo, Spleen %ID/g): 0.74 %ID/g
- tissue uptake at 144 h ([1]; in vivo, Spleen %ID/g): 0.3 %ID/g
- tissue uptake at 216 h ([1]; in vivo, Spleen %ID/g): 0.14 %ID/g
- tissue uptake at 2 h ([1]; kidney, 2 h after i.v. injection of 0.37 MBq, mean, n = 5, read-out: Kidney %ID/g): 3.99 %ID/g
- tissue uptake at 4 h ([1]; kidney, 4 h after i.v. injection of 0.37 MBq, mean, n = 5, read-out: Kidney %ID/g): 3.48 %ID/g
- tissue uptake at 6 h ([1]; kidney, 6 h after i.v. injection of 0.37 MBq, mean, n = 5, read-out: Kidney %ID/g): 3.53 %ID/g
- tissue uptake at 24 h ([1]; kidney, 24 h after i.v. injection of 0.37 MBq, mean, n = 5, read-out: Kidney %ID/g): 2.37 %ID/g
- tissue uptake at 72 h ([1]; kidney, 72 h after i.v. injection of 0.37 MBq, mean, n = 5, read-out: Kidney %ID/g): 3.1 %ID/g
- tissue uptake at 144 h ([1]; kidney, 6 days after i.v. injection of 0.37 MBq, mean, n = 5, read-out: Kidney %ID/g): 1.37 %ID/g
- tissue uptake at 216 h ([1]; kidney, 9 days after i.v. injection of 0.37 MBq, mean, n = 5, read-out: Kidney %ID/g): 0.74 %ID/g
- reduction of activity circulating in the blood relative to the 1 h value ([1]; mouse, in vivo): over 70%
- rapid recurrence of tumor needing early sacrifice (PC-3 tumors [2]; 144 MBq over 3 weeks): no animals having a rapid recurrence
- median survival (time to tumor endpoint of 2500 mm^3) (PC-3 tumors [2]; six i.v. doses of 24 MBq, total 144 MBq, n = 12, study ended day 54, control 34.5 days, p = 0.0015): greater than 54 days
- free 67Cu in human serum [3]: < 5%
- bound to the GRPR receptors ([4]; 37 °C): more than 50%
- internalized into the cells ([4]; 37 °C): about 20%
- total bound with blocking (non-specific binding, % of total added radioactivity) ([4]; excess Tyr4-BBN (20 μg block)): 5.8 ± 0.1%
- tumor necrosis (blinded review of tumor samples) (PC-3 tumors [5]; 4 tumors per group): more extensive areas of necrosis in three out of four tumors
- mean proliferation index (PI), Ki-67 (PC-3 tumors [5]; tumor areas without necrosis, immune infiltrate or host stroma, 4 tumors, control 38.1%, p = 0.26): 50.3%
- intact radiolabeled peptide in PBS 1X (Stability in PBS 1X): greater than 95%
- histological changes in kidney, pancreas and liver vs control (H&E) ([6]; mouse, in vivo): no significant histological changes
- deaths or euthanasia not related to tumor volume ([6]; treated group, n = 12, censored in the survival analysis): one mouse from the [^67Cu]Cu-SAR-BBN group was euthanized due to tumor ulceration (day 38), and another two died due to unknown causes (day 5 and day 22)
